Source: the DeepSol protein solubility set

Assay: soluble on expression in E. coli; label from the status in PepcDB or PDB records

Sequence	soluble on expression in E. coli
MGSDKIHHHHHHMITSDELTENLSPFELSLFLEKKLHEENHNLETLLNAGRGNPNWTAPTPREAFFLLGQFATKETLREGSEQTAGMIQPSFGRTQRFLNFLAENPSKGATFLQEIWTAEHNYFGMDKEMWLDAMLDYVIGDNYPNPVRCLKACEQPIKAYLNQELFSSEAQPFDIFAVEGGTAGICYLFDTLANNYLLEKGDRIALLLPTFAPYLEIPELPRYDFDVVKIKAEQMIIDGKTTYQYSNKEIDKLKDPSIKAVFVVNPSNPTANAMGKPTIEQIKQISAVDNPKLMILTDDVYGTFVPAFRSLFTELPYNTACIYSYSKYFGATGWRVGTIAVSQENIFDQLLKELPVARKMELQARYATLNADTSQINFISRLVADSRDIALNHAAGLSSIQQAMMALFSLYALLKDGQAYKDEVMDICHTREKLLFRTLGIEEPLASLNTAYYCEINFRDWTEKRYGPEFSSYLTKSWTITKVLTSLAEKEKLMLLKADAFGSDKWSVRISLANLATNQYSEVGKRMIRLSEHIKEEWLRQKRQAIK	not soluble
MGSDKIHHHHHHMPLFTEAPKSLCILRLSAVGDVCHALAVVQHIQEYYPQTEMTWIVGKTEMGLLSSIPNITLIPYDKKTGWKGVLSLWKQLKNKQFDALLNMQTAFRASILSLGIKAKFKIGFGEKRSREGQWLFVNRRIRDPFSPHVLDGFMAFAEYIGVPKAEPKWELAISQDDYKFADQFIDFSRKNLLISPCSSKAEKDWLIEGYAEVANIAHQHNINVIFCSSPAKRELEIVEKITALCHFTPTNIAGKTNLKQLTALISKVDLVLSPDSGPAHIATTQGTPVIGLYAYHNPLRTAPYNNLDNVVSVYEENAQKEFGKPSSELPWATKLKGKNLMTEIQVEPVIGQMKKLGLF	not soluble
MAHHHHHHMPRGGHKGGLFPVSGIKWGMNERIKKRGLYHNRREDILTPRWGYRYENENKKYLPDGSSKSFDIDSSRAWPVDKAQWKYYYNINESRYLWPSICANNPEIKNYILNIIENTDTYFSGIGLEQVSNERKNKNLKKDYTNNSYYKNNYLYNLVHELNNTIYPQIEINLNNNLKRGRIQKLYDIIKEENIWKTTQKIKTPESENVFPYVDDNATLIRELPLSEILYTKSNLRLKVRRHPKWMNVQFLKKKVKIPYLYR	not soluble
MPWLLPREIAPLHQKALDRYLGSLTERLSDPNVDRNALVREELARLLYGRPYEELLEANPLAAMGLDPEGITFEAEYYAATDLEKFRRVKPLLWFWKVLDLTPLGQSVHSGVAIRRALAPFIFKRVGKNPKFFQNVEFSVGYNLELGDDVVVHRYVFLDDIGGIKIGDRTSLSDYVNVYSHTHHVLASPDVTLKETIIGSGVRITYHATVLAGVRIGDDAMVGTGAVVTKDIPPHAIALGIPARPVRYKVRHDCPYCRKGEPHPSDLVPKLPDRKGNPDYPDFLPPGFGTREAGS	soluble
MWNFTLISKVKISREVTMIASKFGIGQQVRHSLLGYLGVVVDIDPVYSLSEPSPDELAVNDELRAAPWYHVVMEDDNGLPVHTYLAEAQLSSELQDEHPEQPSMDELAQTIRKQLQAPRLRNLEHHHHHH	not soluble
GPGSMAAVPPQKAANIAQRLQPQCATVGPATLRMSAGKSLKIRENAMYSNMPPPTAFTTPCSATNAGPVMEVCVPFIVMTPIAMPRGTETEKIIVITTSSMTLMEASTSREPSAIPSNSWWNDNATSSVLMSLSLAIPTERPKNTLCEAKPNSIKIAAATRLALFR	not soluble
MIIKPRIRGFICTTTHPVGCEANVKEQIAYTKAQGPIKNAPKRVLVVGASSGYGLSSRIAAAFGGGASTIGVFFEKEGTEKKPGTAGFYNAAAFEKLAREEGLYAKSLNGDAFSNEAKQKTIDLIKEDLGQVDMVVYSLASPVRKMPETGELIRSALKPIGETYTSTAVDTNKDVIIEASVEPATEEEIKDTVTVMGGEDWELWINALSDAGVLAEGCKTVAYSYIGTELTWPIYWDGALGKAKMDLDRAAKALNEKLGATGGSANVAVLKSVVTQASSAIPVMPLYIAMVFKKMREEGVHEGCMEQIYRMFSQRLYKEDGSAAEVDDMNRLRLDDWELREDIQQHCRELWPQITTENLKELTDYVEYKEEFLKLFGFGVEGVDYEADVNPAVETDFIQI	soluble
MGSDKIHHHHHHMTQSDFFSLDGISKRFGVVQALDNVSIAFRPGEVLALVGENGAGKSTMMRILEGVSGPDTGTVRHGSTPIVFGEPRDSHRAGIRVIHQEPEIVPNLTVAENIFVGELPRLAGVLLDWRKLEEQTDRVLATFGMQQDMRPRQLCGTLGPAQRQMIEIMRAIRAGGRLIAFDEPTSSLTDDEARRLFSVVRRLREKGTSIIYISHRLNEIIDLADRIVVLRDGRLVDDSPAAGASEQTIAKLMVGRNIDDLFTRETWRSGEQLLDVAGLTTDRVNDVSLRVRRGEVLGIAGLMGAGRSELAKAIVGYDRRIAGTIAMNGVPVLPNSPHAAIVAGIGFAPEDRKHEALLLFRSILDNAALCVPDKTSSFGFFNRRKAMEIVSPLAAKMSIKAPNLDEQVSKLSGGNQQKVVLARWLARQPMLLILDEPTRGIDIGAKAEIYRLIDELAASGIGIILISSEMPELIGLADRVLVMAGGRITAELARPDIDEATILKHAMPQSASSPGDYIQ	not soluble
MAHHHHHHMNLKTKLQKRRDEVNTCLCIGLDPDEADIKSFMQSEKQNGYQSIKKNLSNHGSSSQGGLFTPQVGGTMLLAENPPKEVQEKDEFFYFFNHFCFYIINETKQYALSYKMNFAFYLPYGSLGVDVLKNVFDYLHYLDVPTILDIKMNDIGNTVKHYSKFIFHYLRSDSCTANIYMGTHMLRDICLDEECKRHYSTFVLIKTTNPDSHIFQNRLSLDGKEAYVVIADEAQKMAKQLHLEENGEFVGFVVGANCYDEMKKIRELFPDCYILAPGVGAQKGDLRKTLCNGYSKNYERLLINVGRAITKSGNPQQAAREYYHQIKEILAELRE	soluble
MVDEVAKKKSKKEKDKDSKLEKALKAQNDLIWNIKDELKKVCSTNDLKELLIFNKQQVPSGESAILDRVADGMVFGALLPCEECSGQLVFKSDAYYCTGDVTAWTKCMVKTQTPNRKEWVTPKEFREISYLKKLKVKKQDRIFPPETSASVALEHHHHHH	soluble
MGSDKIHHHHHHMRIKAVSSLVGGEVLAEPILTEKNDILIPNGTRIKPDYVPLIESLGIESVMVEDPYENYESPNSIVDPAIFDKYVKKVRRLMESHIYHDGKSLKEFEIIANDIVHDINDMPYDVIVDIKERNSDLYEHTVMVTLLSVLVARKLKLDEKRKYNIAVGCLLHDIGLRFIVTRYKNRDFSNANPAELFEYKKHTILGYSALDEENWIAPISMKMVLSHHENMAGTGFPMKQKNKELECRIIQACDAFDSLISGMECKRICVQEAINQIKENDGGRFDNKIIKCLLSSIARYPVGTTVKTNAEEEGVVVSQTVDPENPIIMIFGNENNGKLMLHNRLNLMLDKNISILQVI	not soluble
MTVEWLAEQLKEHNIQLTETQKQQFQTYYRLLVEWNEKMNLTSITDEHDVYLKHFYDSIAPSFYFDFNQPISICDVGAGAGFPSIPLKIMFPQLKVTIVDSLNKRIQFLNHLASELQLQDVSFIHDRAETFGKGVYRESYDVVTARAVARLSVLSELCLPLVKKGGQFVALKSSKGEEELEEAKFAISVLGGNVTETHTFELPEDAGERQMFIIDKKRQTPKKYPRKPGTPNKTPLLEK	not soluble
VLQTRNYTCGPAALVTVLQRLGVNTTEDELAGLAGTTEDGTTMQGLLEASRAKGVNATGMKLNISELKENMIAYTINDGTGHYTVINGITNDTVKLADPSLGNIEMNIEEFTEIYSGYALVINDPNNPR	not soluble
MGSDKIHHHHHHMLLTRNEPFTAEKIQAKADILELVQFERFCRDNALWDAMETCFTKDSNVKISWFQGTGHGFIEASKKMTNPAPHKIYNTQVWIKNDRAVAIMQATIQTRTIINGVEMELNSDAKLVTRVERIDGKWYINAFEGVYEKDSLMPVVPSKNADVPAELLANFRKSYACLALSLTLNGYEIDNNLPGIDRPEQVTQFFKEADEWLLQ	not soluble
MIDVKSIILIVLDGLGDRPGEILGYRTPLQAAYHPNMNRMASLGMTGLMHPISPGIRSGSDTSHMSLLGYDPRVYYQGRGPFEALGLHMDMKPGDLAFRANFATNRDGKIIDRRAGRINAGNDQLASAISIDIGNYKFRVKSGVEHRAALVVSGPNLSDKISDSDPHSEGKPPEPIRPLDPSADSTAKIMNEYLKRIREILRDHPVNVEREKNGQIPGNELLIRSAGKVPDIPSFQEKNGITGACVVGSPWLKGLCRLLGMAVIDVPGAAGTINSNYTGKIKTAIDASKRYDFVLVNIKATDVAGHDGDYELKRRVIEDIDIAMEPLLGQSDRIVVAITGDHSTPCSVKDHSGDPVPIVFYTDGIYSDDVKLFDEVSAMKGALRITTQDVLNILMEMAGRAEKFGS	not soluble
MGSSHHHHHHSSGLVPRGSHMASGLVPRGSHMASMPEASFFTDMLQSITDHGRQLLFSGSRNTQAAAKADLETLCEMLLSSRGEASGMALAAEILDRWGALDSEGAQKFFHMLQQKFGPDTARLDQAIEDYRTDKSSTAVIALHQAAEPRRQELLRRLNHAPNGTATLVRMRQQLLASKDRSEAYHALDADFTHLFGSWFNRGFLTLRPIDWTTPAYILEKIIQYEAVHEIAGWEELRRRLAPADRRCFAFFHPRLADEPLVFVEVALTRSVPKAIADVLDEGREQINADEATTAVFYSISNCQDGLRGISFGNFLIKQVVEDLRKDLPGLKNFVTLSPVPGFARWLAKMRTATGDRSLSEAALKTLSLLDDPNWPGSESSAADVERVLLPLAARYFLTERTPEGRPVDPVARFHLGNGARLERVNFLGDRSPKALQQAHGLMVNYLYKLDDIVANHEALAQRGEVIASPAVKSLLNQNDEGRRSGNGQQGSRAFAQLMNSTLGGGRK	soluble
MKYFEFTFHTSPCTETVNDVLAAVLGEAGFESFVESEGGLTAYIQQALCDENTIKNAITEFPLPDTEITYTYVEAEDKDWNEEWEKNFFQPIVIDNRCVIHSTFHKDVPQATYDIVINPQMAFGTGHHETTSLIIGELLDNELKDKSLLDMGCGTSILAILARMRGARPCIAIDIDEWCVRNSIENIELNHVDDIAVSQGDASSLVGKGPFDIIIANINRNILLNDMKQYVACMHPGSELYMSGFYVDDIPFIRREAEKNGLTFVHHKEKNRWAAVKFTY	not soluble
MPEPHAVLYVTNELSHIVKNEFLPIWKLTGDESLNDLWLENGKYATDVYAYGDVSKWTIRQLRGHGFIFISTHKNVQLADIIKTVDVRVPREVARSHDMKAFENEIGRRRIRMRKGFGDALRNYAFKMAIEFHGSEAETLNDANPRLHKIYGMPEIPPLYMEYAEIGTRFDDEPTDEKLVSMLHYIVYSAEEVHYIGCGDLRTLMQFKKRSPGRFRRVLWHVYDPIAPECSDPNVIVHNIMVDSKKDILKHMNFLKRVERPFIWDVSSDRSQMNDHEWETTRFAEDRLGEEIAYEMGGAFSSALIKHRIPNSKDEYHCISTYLFPQPGADADMYELRNFMRLRGYSHVDRHMHPDASVTKVVSRDVRKMVELYHGRDCGSFLKKRLFEHLHIVRKNGLLHESDEPRADLFYLTNRCNMGLEPSIYEVMKKSVIATAWVGRAPLYDYDDFALPRSTVMLNGSYRDIRILDGNGAILFLMWRYPDIVKKDLTYDPAWAMNFAVSLKEPIPDPPVPDISLCRFIGLRVESSVLRVRNPTLHETADELKRMGLDLSGHLYVTLMSGAYVTDLFWWFKMILDWSAQNREQKLRDLKRSAAEVIEWKEQMAERPWHVRNDLIAALREYKRKMGMREGASIDSWLELLRHL	soluble
MLFHRKIKVPDCVFKAEKRVLHVSDTPVSFYRTFDEILNLIKPDIIIHTGDLADDIKLERKPWLKKEYENALIKFKNIIRGRIVYLVPGNEDDKEIIREILGRDVILVNPGTIIEIYGRTFALGHKPEDVKGKEAEFKLYGHDPKSLFPFNGIHAIHIILFPEWKVVKIRYPSWVNYDRGYRIFRGLLEHHHHHH	not soluble
